Laboratory results from PMC7680125.

What was measured:
[1] = molecular target: Isw1 (ISW1a catalytic subunit);Ioc3 (Saccharomyces cerevisiae (BY4742?);Saccharomyces cerevisiae (BY4742)) (UniProt P38144+P43596); assay: EMSA; settings: 35 mM Na-HEPES pH 7.8, 5 mM MgCl2, 0.1 mM EGTA, 0.02 M EDTA (so in the source), 70 mM NaCl, 0.1 mg/ml BSA, 5-8% glycerol, 40 uM 2-mercaptoethanol, 30 C, 30 min …
[2] = molecular target: Isw1 (ISW1a catalytic subunit);Ioc3 dcHLB del496-565 (Saccharomyces cerevisiae (BY4742?);Saccharomyces cerevisiae (BY4742)) (UniProt P38144+P43596); assay: EMSA; settings: 35 mM Na-HEPES pH 7.8, 5 mM MgCl2, 0.1 mM EGTA, 0.02 M EDTA (so in the source), 70 mM NaCl, 0.1 mg/ml BSA, 5-8% glycerol, 40 uM 2-mercaptoethanol, 30 C, 30 min …

**Q.** Which Kd [1] does the source give for “CACCGGCACGGTCGCTGTTCGATACGTGCGCCGGACGTATATATCTGACACGTGCCTGGCGACTAGGGAGCGATCCCCTTGGCGGTTAAAACGCGGGGGACAGCGCGTACGTGCGTTTAAGCGGTGCTAGAGCTGTCTACGACCAATTGAGCGGCCTCGGCACCGGGAATCTCCAGGGCGGCCGCGTATAGGCTCCGGATCCTCTAGAGTCGACCTCGAAACGGGTACCCCAGGGACTTGAAGTAATAAGGACGGAGGGCCTCTTTCAACATCGATGCACGGTGGTTAGCCTTGGATTGCGCTCTACCGAGCGCTAAGCGTACTTAGAAGCGCGAGCGACGACTTCACACGGTAGGTGGGCGCGCGAACTGGGCAGATCC (double strand) [30(N1)50(N2)6 dinucleosome]” here?
**A.** The Kd was 10.2 nM.

**Q.** What about the Kd [2] of the same substance?
**A.** The Kd was 28 nM.

**Q.** Which Kd [1] does the source give for 0N70 mononucleosome here?
**A.** Its Kd is 30.3 nM.

**Q.** And the Kd [2]?
**A.** The Kd was 32.5 nM.

**Q.** “TCGGAACGCTATCCGACTGGCACCGGCACGGTCGCTGTTCGATACGTGCGCCGGACGTATATATCTGACACGTGCCTGGCGACTAGGGAGCGATCCCCTTGGCGGTTAAAACGCGGGGGACAGCGCGTACGTGCGTTTAAGCGGTGCTAGAGCTGTCTACGACCAATTGAGCGGCCTCGGCACCGGGAATCTCCAGGGCGGCCGCGTATAGGCTCCGGATCCTCTAGAGTCGACCTCGAAACGGGTACCCCAGGGACTTGAAGTAATAAGGACGGAGGGCCTCTTTCAACATCGATGCACGGTGGTTAGCCTTGGATTGCGCTCTACCGAGCGCTAAGCGTACTTAGAAGCGCGAGCGACGACTTCACACGGTAGGTGGGCGCGCGAACTGGGCAGATCC (double strand) [50(N1)50(N2)6 dinucleosome]” was tested. Which Kd [1] did it give?
**A.** Its Kd is 5.29 nM.

**Q.** And the Kd [2]?
**A.** The Kd was 12.5 nM.

**Q.** With “CCGGACGTATATATCTGACACGTGCCTGGCGACTAGGGAGCGATCCCCTTGGCGGTTAAAACGCGGGGGACAGCGCGTACGTGCGTTTAAGCGGTGCTAGAGCTGTCTACGACCAATTGAGCGGCCTCGGCACCGGGAATCTCCAGGGCGGCCGCGTATAGGCTCCGGATCCTCTAGAGTCGACCTCGAAACGGGTACCCCAGGGACTTGAAGTAATAAGGACGGAGGGCCTCTTTCAACATCGATGCACGGTGGTTAGCCTTGGATTGCGCTCTACCGAGCGCTAAGCGTACTTAGAAGCGCGAGCGACGACTTCACACGGTAGGTGGGCGCGCGAACTGGGCAGATCC (double strand) [0(N1)50(N2)6 dinucleosome]” as the substance, how does the Kd [1] read?
**A.** Its Kd is 45.9 nM.

**Q.** What about the Kd [2] of the same substance?
**A.** Its Kd is 34.5 nM.
